# Assay results as given in the RNAGym collection of RNA variant scans (doi:10.7554/elife.80360).
# B1: Hammerhead Ribozyme (parent)
# chain: ACCGGAUGUGCUUUCCGGUCUGAUGAGUCCGUGAGGACGAAACAG
# Variants of: B1
# Experiment: self-cleavage, relative activity (ratio to wild type); higher = more cleavage; co-transcriptional
row,Variant,self-cleavage
1,G4A U14C,0.404
2,G17C G39C,0.291
3,U14G G17C,0.27
4,G4U G5A,0.284
5,U7C G25C,0.319
6,G18U U19C,0.487
7,G8U C29G,0.847
8,G36U C38U,0.674
9,G8C U21G,0.432
10,U24C G27C,0.559
11,A6C U21C,0.389
12,A6C U21A,0.475
13,G4C U21C,0.363
14,U14G G18A,0.54
15,G5A U28A,0.364
16,A34C G36C,0.419
17,U19C G39A,0.282
18,G25A C43U,0.341
19,A26U G27U,0.315
20,A6U U21C,0.616
21,C15U G36C,0.356
22,C3A U13A,1.33
23,C2G C38G,0.317
24,C20U A41G,0.349

row,Variant,self-cleavage
1,G36A G39U,0.322
2,C29G A37G,0.414
3,G31U A42G,0.28
4,G22C A34G,0.306
5,U7A U13C,1.43
6,C16A G33U,1.4
7,U21G G22U,0.426
8,G8A G39U,0.369
9,G31A G45A,0.934
10,U21C A42C,0.28
11,C30G U32G,0.651
12,G17A C43A,0.372
13,G17U U28A,0.58
14,C16U A34C,1
15,A1G G17C,0.585
16,A23G A37U,0.28
17,G17A G36A,0.442
18,G35C A44G,0.692
19,G5A G45A,0.61
20,C15G A34U,0.904
21,C3U U19G,0.38
22,C3G A41G,0.274
23,G17U A23G,0.382
24,C38U A44U,0.648

row,Variant,self-cleavage
1,U9A C38A,0.755
2,C11A C16A,1.41
3,U14A G22C,0.327
4,C43A G45C,0.441
5,C2G G39A,0.342
6,G22C G27C,0.311
7,U24A C43U,0.518
8,G33A A40G,0.503
9,C30U G33A,1.02
10,G5A U7C,1.06
11,G5C G25U,0.307
12,A1G U14A,1.46
13,G17C C30U,0.545
14,G5C U24A,0.648
15,U9C A37C,1.03
16,G5A A40U,0.409
17,G8C G22A,0.347
18,U7A G35A,0.687
19,C20U A26G,0.262
20,U32A C43U,0.595
21,G22C A26G,0.253
22,A1U C30G,0.414
23,G5A G31U,1.61
24,U12C A44C,0.611

row,Variant,self-cleavage
1,U13A G33C,1.25
2,C16G G17A,0.532
3,G17A G35A,0.623
4,G18A G31A,1.05
5,G8C U32C,1.46
6,G10C C15G,0.524
7,A1G U19G,0.61
8,A1U C2A,0.672
9,G4C U19A,0.283
10,G22A C38A,0.327
11,U19A C38G,0.365
12,G4C A42U,0.297
13,A37G G45U,0.567
14,A1C G17A,0.391
15,C2A U9G,0.44
16,C20G G45U,0.316
17,C3A G22U,0.291
18,U13G G27U,0.375
19,C30U G45C,1.05
20,A34C G39U,0.404
21,C3G G25U,0.329
22,A6C G31A,0.778
23,C15A G18U,0.33
24,U14C U28A,0.501

row,Variant,self-cleavage
1,U21A A34C,0.439
2,C15U C20A,0.511
3,U19A A23U,0.386
4,C3A A37C,0.354
5,G18A U32A,0.778
6,A34C A41C,0.354
7,G17A C20A,0.327
8,C29A G35C,0.526
9,A6G A26U,0.71
10,G22C A37U,0.259
11,G31A C38A,0.766
12,G22C C29U,0.3
13,G8U U24C,0.829
14,A6G U28G,0.461
15,U14G C43U,0.547
16,C3U A6C,0.437
17,U12G G33C,0.972
18,U28A U32C,0.626
19,U28A U32A,0.824
20,G5A G36A,0.667
21,G10U U13C,1.11
22,C16U C38U,1.03
23,A26C G31U,0.727
24,G5U U12G,0.806

row,Variant,self-cleavage
1,U9C G10U,0.795
2,G8U G39U,0.344
3,C3U U13C,1.33
4,U12C C30G,0.84
5,G5A G39U,0.329
6,C16U G36A,0.636
7,G17U C43U,0.379
8,C16U C29A,0.586
9,G18C A37U,0.483
10,C3G C16A,0.39
11,A41G G45A,0.25
12,U32G A40G,0.342
13,U21G A34G,0.602
14,G27U G35A,0.334
15,A40G A41U,0.31
16,C43U A44G,0.586
17,G18A U28C,0.388
18,U24G G25C,0.294
19,A6C G10C,0.515
20,G5U G18U,0.343
21,U12A U19A,0.419
22,G10C A34U,0.934
23,U7C G27A,0.814
24,G4A A37U,0.378

row,Variant,self-cleavage
1,G35U G45U,0.421
2,C2G A23U,0.321
3,A26C A41G,0.307
4,U7G U28C,1.36
5,G39U A41G,0.327
6,U12G U19G,0.509
7,C2U A26C,0.514
8,C30G C43A,0.287
9,C3U G25C,0.315
10,C2A G45U,0.417
11,U32A A34U,1.04
12,C20U U32G,0.494
13,A6C G36U,0.34
14,A1C G35C,0.406
15,A1G G27A,1.07
16,G10A C30U,1.06
17,U12G A37C,0.88
18,C3A G17C,0.708
19,C29A G36A,0.665
20,C16A U24G,0.87
21,U14G A26C,0.764
22,U7G C38U,1.4
23,U32G G45A,0.56
